Source: patent US20220332804A1 (CSL INNOVATION, published 2022)
Positions count from the first letter of the chain named.

Legend:
Test in all cases: SPR, antibody captured, C2 as analyte;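 note: biacore at 37 °C, anti-C2 mAbs held by immobilised goat anti-human IgG, C2 alanine or serine mutants injected, double-referenced sensorgrams fitted to a 1:1 kinetic or steady-state model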
human C2 A444S = target: T1, human C2 A444S (human, UniProt P06681 21-752)
T1 sequence: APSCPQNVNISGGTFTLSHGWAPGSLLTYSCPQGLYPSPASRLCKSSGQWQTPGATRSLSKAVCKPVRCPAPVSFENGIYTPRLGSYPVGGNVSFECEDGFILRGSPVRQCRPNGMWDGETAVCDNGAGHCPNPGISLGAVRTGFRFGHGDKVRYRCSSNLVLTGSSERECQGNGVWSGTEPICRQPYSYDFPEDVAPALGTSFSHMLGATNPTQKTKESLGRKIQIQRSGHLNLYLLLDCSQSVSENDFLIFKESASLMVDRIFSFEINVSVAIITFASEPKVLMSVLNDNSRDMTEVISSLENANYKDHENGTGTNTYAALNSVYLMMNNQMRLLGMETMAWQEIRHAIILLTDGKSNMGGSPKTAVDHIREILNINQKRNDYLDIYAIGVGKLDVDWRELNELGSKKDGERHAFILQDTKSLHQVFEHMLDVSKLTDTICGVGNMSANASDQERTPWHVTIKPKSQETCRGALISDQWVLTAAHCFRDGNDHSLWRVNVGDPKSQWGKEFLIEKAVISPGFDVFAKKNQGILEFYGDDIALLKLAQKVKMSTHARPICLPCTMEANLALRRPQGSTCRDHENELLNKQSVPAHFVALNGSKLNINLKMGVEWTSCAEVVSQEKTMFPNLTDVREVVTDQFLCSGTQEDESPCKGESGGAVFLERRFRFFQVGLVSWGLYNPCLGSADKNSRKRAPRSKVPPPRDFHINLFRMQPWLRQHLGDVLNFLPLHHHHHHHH

human C2 N380A = target: T2, human C2 N380A (human, UniProt P06681 21-752)
T2 sequence: T1 sequence with N360A, S424A

human C2 G466A = target: T3, human C2 G466A (human, UniProt P06681 21-752)
T3 sequence: T1 sequence with S424A, G446A

human C2 W420A = target: T4, human C2 W420A (human, UniProt P06681 21-752)
T4 sequence: T1 sequence with W400A, S424A

B1: RF16-242 (antibody, human IgG4 S228P, lambda, V domains shown)
VH: EVQLLQSGAEVKKPGESLKISCKGSGYSFTSYWIGWVRQMPGKGLEWMGIIYPGDSDTRYSPSFQGQVTISADKSISTAYLQWSSLKASDTAMYYCARRGHYGDYFDYWGQGTLVTVSS
VL: SYELTQPPSVSVSPGQTARITCSGDALPKKYAYWYHQKSGQAPVLVIYEDRRRPSEIPERFSGSSSGTMATLTITGAQVEDEGVYFCYSRDRAGNQRVFGGGTQLTVLG
notes: pH-dependent anti-C2 antibody from a phage display library
Kd (human C2 A444S): 22.4 nM
Kd (human C2 N380A): 10.2 nM
Kd (human C2 G466A): 24.9 nM
Kd (human C2 W420A): 13.2 nM
